Data published in patent US11957762B2, “Immune tolerant and non-immune tolerant elastin-like recombinant peptides and methods of use” (University of Utah Research Foundation, priority 2015, dated 2024).

B1: RED-NP: reductive-environment dependable NP, disulfide stabilized fusion iTEPB70-iTEPA28-(G8C)4-pOVA (SEQ ID NO: 61) (protein)
chain: GGAGVPGGAGVPGGAGVPGGAGVPGGAGVPGGAGVPGGAGVPGGAGVPGGAGVPGGAGVPGGAGVPGGAGVPGGAGVPGGAGVPGGAGVPGGAGVPGGAGVPGGAGVPGGAGVPGGAGVPGGAGVPGGAGVPGGAGVPGGAGVPGGAGVPGGAGVPGGAGVPGGAGVPGGAGVPGGAGVPGGAGVPGGAGVPGGAGVPGGAGVPGGAGVPGGAGVPGGAGVPGGAGVPGGAGVPGGAGVPGGAGVPGGAGVPGGAGVPGGAGVPGGAGVPGGAGVPGGAGVPGGAGVPGGAGVPGGAGVPGGAGVPGGAGVPGGAGVPGGAGVPGGAGVPGGAGVPGGAGVPGGAGVPGGAGVPGGAGVPGGAGVPGGAGVPGGAGVPGGAGVPGGAGVPGGAGVPGGAGVPGGAGVPGGAGVPGGAGVPGGGVLPGVGGVLPGVGGVLPGVGGVLPGVGGVLPGVGGVLPGVGGVLPGVGGVLPGVGGVLPGVGGVLPGVGGVLPGVGGVLPGVGGVLPGVGGVLPGVGGVLPGVGGVLPGVGGVLPGVGGVLPGVGGVLPGVGGVLPGVGGVLPGVGGVLPGVGGVLPGVGGVLPGVGGVLPGVGGVLPGVGGVLPGVGGVLPGVGGCGCGCGCGESIINFEKLTESIINFEKLTGG
B2: ST-NP: stable NP of the fusion iTEPB70-iTEPA56-pOVA (SEQ ID NO: 60) (protein)
chain: GGAGVPGGAGVPGGAGVPGGAGVPGGAGVPGGAGVPGGAGVPGGAGVPGGAGVPGGAGVPGGAGVPGGAGVPGGAGVPGGAGVPGGAGVPGGAGVPGGAGVPGGAGVPGGAGVPGGAGVPGGAGVPGGAGVPGGAGVPGGAGVPGGAGVPGGAGVPGGAGVPGGAGVPGGAGVPGGAGVPGGAGVPGGAGVPGGAGVPGGAGVPGGAGVPGGAGVPGGAGVPGGAGVPGGAGVPGGAGVPGGAGVPGGAGVPGGAGVPGGAGVPGGAGVPGGAGVPGGAGVPGGAGVPGGAGVPGGAGVPGGAGVPGGAGVPGGAGVPGGAGVPGGAGVPGGAGVPGGAGVPGGAGVPGGAGVPGGAGVPGGAGVPGGAGVPGGAGVPGGAGVPGGAGVPGGAGVPGGAGVPGGAGVPGGAGVPGGAGVPGGGVLPGVGGVLPGVGGVLPGVGGVLPGVGGVLPGVGGVLPGVGGVLPGVGGVLPGVGGVLPGVGGVLPGVGGVLPGVGGVLPGVGGVLPGVGGVLPGVGGVLPGVGGVLPGVGGVLPGVGGVLPGVGGVLPGVGGVLPGVGGVLPGVGGVLPGVGGVLPGVGGVLPGVGGVLPGVGGVLPGVGGVLPGVGGVLPGVGGGGGGGGGCGGGGGGGGCGGGGGGGGCGGGGGGGGCGESIINFEKLTESIINFEKLTGG
B3: G(GAGVPG)70G(GVLPGVG)28G(ESIINFEKLT)2GG (protein)
chain: GGAGVPGGAGVPGGAGVPGGAGVPGGAGVPGGAGVPGGAGVPGGAGVPGGAGVPGGAGVPGGAGVPGGAGVPGGAGVPGGAGVPGGAGVPGGAGVPGGAGVPGGAGVPGGAGVPGGAGVPGGAGVPGGAGVPGGAGVPGGAGVPGGAGVPGGAGVPGGAGVPGGAGVPGGAGVPGGAGVPGGAGVPGGAGVPGGAGVPGGAGVPGGAGVPGGAGVPGGAGVPGGAGVPGGAGVPGGAGVPGGAGVPGGAGVPGGAGVPGGAGVPGGAGVPGGAGVPGGAGVPGGAGVPGGAGVPGGAGVPGGAGVPGGAGVPGGAGVPGGAGVPGGAGVPGGAGVPGGAGVPGGAGVPGGAGVPGGAGVPGGAGVPGGAGVPGGAGVPGGAGVPGGAGVPGGAGVPGGAGVPGGAGVPGGAGVPGGAGVPGGESIINFEKLTESIINFEKLTGG

Columns and labels:
[1] = Response of NPs to reductants (DLS after GSH or DTT); assay type: physicochemical; details: 16 hours, by number distribution
Experimental: The next set of experiments tested whether disulfide bonds inside the new NP were reducible and if the NP structure was dissolvable in a reductive environment like cytosol (glutathione, GSH 1-10 mM) (Smith et al., Toxicol Appl Pharmacol, 1996; 140(1):1-12; Wu et al., J Nutr, 2004; 134(3):489-92). The new NP and the ST-NP were treated using two concentrations of GSH, at 37° C. overnight and then analyzed particle structure changes of both NPs by DLS. These concentrations mimic GSH concentrations in either cytoplasm (GSH 1-10 mM) or the extracellular (GSH 1-10 μM) environment (Smith et al., Toxicol Appl Pharmacol, 1996; 140(1):1-12; Cantin et al., Appl Physiol (1985), 1987, 63(1):152-7; Jones et al., Clin Chim Acta, 1998; 275(2):175-84). Both NPs were stable at 10 μM of GSH. The new NP lost its particle structure after being treated with 1 mM of GSH (Table 4). […] In contrast, the ST-NP, as a control, maintained its particle structure regardless of its incubation with any concentration of GSH. Similar results emerged when dithiothreitol (DTT) was used as the reductant except that the new iTEP-NP was not stable in 10 μM of DTT (Table 4). […] The new NP was named the reductive-environment dependable NP or RED-NP.

DC2.4 cells [2] = test: Cellular uptake of iTEP-vaccine fusions by DCs; assay type: cell-based, murine
Experimental: Fluorescent labeling of iTEP-vaccine fusions. For the flow cytometry study, the fusions were labeled with the amine-reactive coumarin, 7-diethylaminocoumarin-3-carboxylic acid, through succinimidyl ester to form blue-fluorescent bioconjugates. For the microscopy-based cellular uptake study and the cellular degradation study, the fusions were labeled with Alexa Fluo 488 5-SDP ester (Alexa-488) to form green-fluorescent bioconjugates. The reactions were performed based on the manufacturer's instructions (Molecular Probes by Life Technologies). Briefly, 10 mg of iTEPs were reacted with 1 mg of coumarin or 0.2 mg of Alexa-488 in 0.1 M sodium bicarbonate buffer, pH 8.3 at a final volume of 1 mL. The reaction was carried out with continuous stirring in the dark and at room temperature for 1.5 h. The protein-dye conjugates were purified using Amicon Ultra1-5 (10k) centrifugal filters (Millipore). The coumarin conjugate was measured for their absorbances of at 205 nm (A205) and 433 nm (A433, λmax for coumarin); the Alexa-488 conjugate was measured at 205 nm and 495 nm (A495, λmax for Alexa-488). The iTEP-vaccine fusion concentrations and the degree of labeling (DOL) were calculated based on these equations: […]
Cellular uptake of iTEP-vaccine fusions. […] The fluorescence of the cells was measured by flow cytometry (collecting 5×10^4 events per sample). […]

DC2.4 cells [3] = test: Presentation of the CTL epitope […] by DCs (flow cytometry); assay type: cell-based, murine; details: 16 h incubation with DC2.4 cells
Experimental: Presentation of the CTL epitope, […], by DCs. Cells of a murine DC line (DC2.4, a gift from K. Rock)^(32) were plated at 2.5×10^5/500 μL/well in 24-well plates. 500 μL of OVA, […] peptide (SEQ ID NO: 22), or iTEPB-iTEPA-pOVA NP (SEQ ID NO: 56) (iTEP-pOVA NP hereafter) were dissolved in cell culture media and added to the wells containing DCs. The cells were further cultured for 16 hrs. at 37° C. with 5% CO2 before they were collected and washed with PBS. The MHC class I complex, H-2kb/[…] presented on DC surface was stained with a PE-tagged monoclonal antibody 25-D1.16 (Biolegend, 1:100 dilution) and quantified with flow cytometry (5×10^4 events collected per sample). The data are presented as MFI normalized to the MFI of untreated DC2.4 cells.
Presentation of […] epitope vaccine by DCs. The presentation was studied as previously described (Cho et al., J Drug Target, 2015; p 1-12). The concentration of iTEP-vaccine fusions (NPs) used in this experiment was 5 μM. The results of presentation were shown as mean fluorescence intensity (MFI) of 5000 treated, live cells in a given treatment, which were normalized to the MFI value of untreated DC2.4 cells.

[4] = Critical micelle concentration by pyrene assay; assay type: physicochemical; details: pyrene assay in PBS
Experimental: Measurement of critical micelle concentrations (CMCs) of iTEP-vaccine fusions by pyrene assay. The CMCs of iTEP-vaccine fusions (NPs) were measured through fluorescence spectra by using pyrene as a hydrophobic fluorescent probe as described previously with some adjustments (Ohyanagi et al., Jpn J Clin Oncol, 2011; 41(5); 718-22; Dreher et al., J Am Chem Soc, 2008; 130(2):687-94). Briefly, the fusions were serially 2×time diluted in PBS starting from 250 μM in 96-well black clear-bottom plates. The final volume for each dilution was 150 μL. Three μL of a stock solution of 30 μM pyrene in ethanol was added to each well and mixed well. Fluorescence of these samples were scanned using an Infinite M1000 PRO plate reader (Tecan Trading AG, Switzerland) with the setting: Ex: 334 nm with a slit of 10 nm, Em: ranging 360-400 nm with a slit of 2.5 nm. Four peaks were recorded for pyrene between 360-400 nm. The ratio of emission peak number 1 (I1; 370-373 nm) and emission peak number 3 (I3; 381-384 nm) of pyrene (I1/I3) was plotted as a function of iTEP concentration. The data points were fitted to a sigmoidal-dose response curve, and the CMC was defined as the inflection point of the curve.

Molecule | Hydrodynamic diameter (nm) ([1]; DTT 10 μM) | Hydrodynamic diameter (nm) ([1]; DTT 1000 μM) | Hydrodynamic diameter (nm) ([1]; GSH 10 μM) | Hydrodynamic diameter (nm) ([1]; GSH 1000 μM) | Hydrodynamic diameter (nm) ([1]; no reductant (0 μM)) | internalization to DCs (DC2.4 cells [2]; fluorescence microscopy and flow cytometry) | presentation of SIINFEKL by DCs (DC2.4 cells [3]) | CMC (critical micelle concentration) [4] [µM] | uptake by DCs, times more than the MS-NP (DC2.4 cells [2]; 5 μM coumarin-labeled fusions, 4 h)
B1 | 8.75 ± 2.03 nm | 6.43 ± 2.01 nm | 37.98 ± 6.72 (NP) nm | 8.35 ± 1.04 nm | 47.11 ± 13.18 (NP) nm | as efficient as the ST-NP and more robust than the MS-NP | significantly better than that of the ST-NP | – | –
B2 | 52.56 ± 13.67 (NP) nm | 53.10 ± 13.56 (NP) nm | 52.23 ± 13.59 (NP) nm | 50 ± 13.62 (NP) nm | 54.82 ± 12.89 (NP) nm | – | significantly weaker presentation than the MS-NP | 23.94 | two
B3 | – | – | – | – | – | – | significantly more | 120.6 | –
